Data published in the supplement of paper PMC10201428.
± gives the standard deviation of the averaged measurements.

Assays:
[1] = system: VchCAST RNA-guided transposition machinery (E. coli BL21(DE3) host, lacZ target); experiment: relative integration efficiency (T-LR orientation) vs wild-type transposon end (log2 (normalized fold change)); transposon end mutated: right end (5 bp flank + 75 bp right end); higher = more efficient transposition
In short: (§1)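 Barcode abundances in input plasmids and in genomic integration junctions were obtained by PCR amplification and Illumina sequencing. These came from E. coli BL21(DE3) co-transformed with a T7-driven effector plasmid and a pUC57 donor carrying 1549 left-end or 1849 right-end transposon variants, then plated with 0.1 mM IPTG at 37°C for 18 h. Relative integration efficiency is the output/input fold change, normalised to reference barcodes and log-transformed.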

[2] = system: VchCAST RNA-guided transposition machinery (E. coli BL21(DE3) host, lacZ target); experiment: relative integration efficiency (T-RL orientation) vs wild-type transposon end (log2 (normalized fold change)); transposon end mutated: right end (5 bp flank + 75 bp right end); higher = more efficient transposition
In short: as §1

Sequence	relative integration efficiency (log2) [1]	relative integration efficiency (log2) [2]
ACATTTGTTGATACCACCATAAAATGATAATTCCACCCATAAATTGATAATTATCACACCCAATTTAACTATAACGCTCTGATCATAGTCAGACCAACATTGCTACGACCCGTATTCGCACCGACAC	2.52 ± 0.15	-1.1 ± 0.17
ACATTTGTTGATACCACCATAAAATGATAATTCCACCCATACATTGATAATTATCACACCCAATTTAACTATAACGCTCTGATCATAGTCAGACCAACATTGCTACGACCCGTATTCGCACCGACAC	0.789 ± 0.33	-2.81 ± 0.42
ACATTTGTTGATACCACCATAAAATGATAATTCCACCCCTAAATTGATAATTATCACACCCAATTTAACTATAACGCTCTGATCATAGTCAGACCAACATTGCTACGACCCGTATTCGCACCGACAC	0.417 ± 0.16	-2.92 ± 0.31
ACATTTGTTGATACCACCATAAAATGATAATTCCACCCCTACATTGATAATTATCACACCCAATTTAACTATAACGCTCTGATCATAGTCAGACCAACATTGCTACGACCCGTATTCGCACCGACAC	-0.121 ± 0.44	-3.78 ± 0.24
ACATTTGTTGATACCACCATAAAATGGTAATTACACCCATAAATTGATAATTATCACACCCAATTTAACTATAACGCTCTGATCATAGTCAGACCAACATTGCTACGACCCGTATTCGCACCGACAC	2.15 ± 0.17	-1.38 ± 0.13
ACATTTGTTGATACCACCATAAAATGGTAATTACACCCATACATTGATAATTATCACACCCAATTTAACTATAACGCTCTGATCATAGTCAGACCAACATTGCTACGACCCGTATTCGCACCGACAC	0.455 ± 0.2	-2.87 ± 0.24
ACATTTGTTGATACCACCATAAAATGGTAATTACACCCCTAAATTGATAATTATCACACCCAATTTAACTATAACGCTCTGATCATAGTCAGACCAACATTGCTACGACCCGTATTCGCACCGACAC	-0.273 ± 0.24	-3.42 ± 0.33
ACATTTGTTGATACCACCATAAAATGGTAATTACACCCCTACATTGATAATTATCACACCCAATTTAACTATAACGCTCTGATCATAGTCAGACCAACATTGCTACGACCCGTATTCGCACCGACAC	-0.988 ± 0.042	-4.23 ± 0.31
ACATTTGTTGATACCACCATAAAATGGTAATTCCACCCATAAATTGATAATTATCACACCCAATTTAACTATAACGCTCTGATCATAGTCAGACCAACATTGCTACGACCCGTATTCGCACCGACAC	2.06 ± 0.076	-1.38 ± 0.23
ACATTTGTTGATACCACCATAAAATGGTAATTCCACCCATACATTGATAATTATCACACCCAATTTAACTATAACGCTCTGATCATAGTCAGACCAACATTGCTACGACCCGTATTCGCACCGACAC	0.278 ± 0.23	-3.16 ± 0.49
ACATTTGTTGATACCACCATAAAATGGTAATTCCACCCCTAAATTGATAATTATCACACCCAATTTAACTATAACGCTCTGATCATAGTCAGACCAACATTGCTACGACCCGTATTCGCACCGACAC	-0.252 ± 0.21	-3.4 ± 0.27
ACATTTGTTGATACCACCATAAAATGGTAATTCCACCCCTACATTGATAATTATCACACCCAATTTAACTATAACGCTCTGATCATAGTCAGACCAACATTGCTACGACCCGTATTCGCACCGACAC	-0.833 ± 0.022	-4.47 ± 0.45
ACATTTGTTGATACCACCATCAAATGATAATTACACCCATAAATTGATAATTATCACACCCAATTTAACTATAACGCTCTGATCATAGTCAGACCAACATTGCTACGACCCGTATTCGCACCGACAC	1.14 ± 0.18	-1.91 ± 0.26
ACATTTGTTGATACCACCATCAAATGATAATTACACCCATACATTGATAATTATCACACCCAATTTAACTATAACGCTCTGATCATAGTCAGACCAACATTGCTACGACCCGTATTCGCACCGACAC	-0.805 ± 0.15	-3.87 ± 0.1
ACATTTGTTGATACCACCATCAAATGATAATTACACCCCTAAATTGATAATTATCACACCCAATTTAACTATAACGCTCTGATCATAGTCAGACCAACATTGCTACGACCCGTATTCGCACCGACAC	-1.78 ± 0.038	-4.72 ± 0.056
ACATTTGTTGATACCACCATCAAATGATAATTACACCCCTACATTGATAATTATCACACCCAATTTAACTATAACGCTCTGATCATAGTCAGACCAACATTGCTACGACCCGTATTCGCACCGACAC	-2.42 ± 0.59	-5.58 ± 0.31
ACATTTGTTGATACCACCATCAAATGATAATTCCACCCATAAATTGATAATTATCACACCCAATTTAACTATAACGCTCTGATCATAGTCAGACCAACATTGCTACGACCCGTATTCGCACCGACAC	1.36 ± 0.27	-2.05 ± 0.11
ACATTTGTTGATACCACCATCAAATGATAATTCCACCCATACATTGATAATTATCACACCCAATTTAACTATAACGCTCTGATCATAGTCAGACCAACATTGCTACGACCCGTATTCGCACCGACAC	-1.66 ± 0.086	-4.883 ± 0.0066
ACATTTGTTGATACCACCATCAAATGATAATTCCACCCCTAAATTGATAATTATCACACCCAATTTAACTATAACGCTCTGATCATAGTCAGACCAACATTGCTACGACCCGTATTCGCACCGACAC	-2.31 ± 0.042	-5.24 ± 0.34
ACATTTGTTGATACCACCATCAAATGATAATTCCACCCCTACATTGATAATTATCACACCCAATTTAACTATAACGCTCTGATCATAGTCAGACCAACATTGCTACGACCCGTATTCGCACCGACAC	-2.15 ± 0.19	-5.99 ± 0.51
ACATTTGTTGATACCACCATCAAATGGTAATTACACCCATAAATTGATAATTATCACACCCAATTTAACTATAACGCTCTGATCATAGTCAGACCAACATTGCTACGACCCGTATTCGCACCGACAC	0.203 ± 0.17	-2.79 ± 0.21
ACATTTGTTGATACCACCATCAAATGGTAATTACACCCATACATTGATAATTATCACACCCAATTTAACTATAACGCTCTGATCATAGTCAGACCAACATTGCTACGACCCGTATTCGCACCGACAC	-2.98 ± 0.51	-5.6 ± 0.15
ACATTTGTTGATACCACCATCAAATGGTAATTACACCCCTAAATTGATAATTATCACACCCAATTTAACTATAACGCTCTGATCATAGTCAGACCAACATTGCTACGACCCGTATTCGCACCGACAC	-3.8 ± 0.81	-6.57 ± 0.25
ACATTTGTTGATACCACCATCAAATGGTAATTACACCCCTACATTGATAATTATCACACCCAATTTAACTATAACGCTCTGATCATAGTCAGACCAACATTGCTACGACCCGTATTCGCACCGACAC	0.00776 ± 0.29	-3.15 ± 0.8
ACATTTGTTGATACCACCATCAAATGGTAATTCCACCCATAAATTGATAATTATCACACCCAATTTAACTATAACGCTCTGATCATAGTCAGACCAACATTGCTACGACCCGTATTCGCACCGACAC	-0.205 ± 0.08	-3.19 ± 0.23
ACATTTGTTGATACCACCATCAAATGGTAATTCCACCCATACATTGATAATTATCACACCCAATTTAACTATAACGCTCTGATCATAGTCAGACCAACATTGCTACGACCCGTATTCGCACCGACAC	-4.54 ± 0.41	-6.61 ± 0.18
ACATTTGTTGATACCACCATCAAATGGTAATTCCACCCCTAAATTGATAATTATCACACCCAATTTAACTATAACGCTCTGATCATAGTCAGACCAACATTGCTACGACCCGTATTCGCACCGACAC	-4 ± 0.18	-6.33 ± 0.84
